Publication PMC2787366

Columns and labels:
Assay in all cases: fluorescence polarisation
[1] = molecular target: H3K9me3 peptide (fluorescence polarization)
[2] = molecular target: G9aK185me3 peptide (fluorescence polarization)
[3] = molecular target: H3 peptide dimethylated on lysine 9 (fluorescence polarization)

- Kd [1]: 2 µM
- Kd [2]: 8 µM
- fold weaker than with the H3K9me3 peptide [3]: 1.5 fold
B1: hCDYL1b chromodomain (1–78 aa) (domain or fragment)
chain: MASEELYEVERIVDKRKNKKGKTEYLVRWKGYDSEDDTWEPEQHLVNCEEYIHDFNRRHTEKQKESTLTRTNRTSPNN
